The assay has as its target purified human fibrinogen (human) (UniProt P02671). As to the kind of experiment: cell-based or functional assay.

The source of these data is patent publication US20140031293A1.

Sequence of UniProt P02671 (P02671 20-629 limits assumed, chain 1 of 3): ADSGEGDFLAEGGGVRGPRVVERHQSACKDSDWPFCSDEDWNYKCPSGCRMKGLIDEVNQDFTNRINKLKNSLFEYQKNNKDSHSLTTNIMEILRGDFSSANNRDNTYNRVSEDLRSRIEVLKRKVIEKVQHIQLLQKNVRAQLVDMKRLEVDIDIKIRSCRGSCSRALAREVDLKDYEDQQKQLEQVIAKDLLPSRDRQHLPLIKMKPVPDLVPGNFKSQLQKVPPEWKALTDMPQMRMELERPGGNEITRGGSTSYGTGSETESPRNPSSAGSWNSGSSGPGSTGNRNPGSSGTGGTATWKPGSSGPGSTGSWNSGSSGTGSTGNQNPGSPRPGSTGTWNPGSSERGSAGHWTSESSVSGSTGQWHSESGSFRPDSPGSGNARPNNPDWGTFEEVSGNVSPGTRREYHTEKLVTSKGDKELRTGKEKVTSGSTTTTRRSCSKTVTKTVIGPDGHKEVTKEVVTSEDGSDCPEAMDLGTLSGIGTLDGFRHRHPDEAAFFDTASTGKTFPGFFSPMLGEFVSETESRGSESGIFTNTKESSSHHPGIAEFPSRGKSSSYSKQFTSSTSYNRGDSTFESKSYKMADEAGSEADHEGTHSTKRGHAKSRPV
Sequence of UniProt P02671 (P02675 31-491 limits assumed, chain 2 of 3, further chain): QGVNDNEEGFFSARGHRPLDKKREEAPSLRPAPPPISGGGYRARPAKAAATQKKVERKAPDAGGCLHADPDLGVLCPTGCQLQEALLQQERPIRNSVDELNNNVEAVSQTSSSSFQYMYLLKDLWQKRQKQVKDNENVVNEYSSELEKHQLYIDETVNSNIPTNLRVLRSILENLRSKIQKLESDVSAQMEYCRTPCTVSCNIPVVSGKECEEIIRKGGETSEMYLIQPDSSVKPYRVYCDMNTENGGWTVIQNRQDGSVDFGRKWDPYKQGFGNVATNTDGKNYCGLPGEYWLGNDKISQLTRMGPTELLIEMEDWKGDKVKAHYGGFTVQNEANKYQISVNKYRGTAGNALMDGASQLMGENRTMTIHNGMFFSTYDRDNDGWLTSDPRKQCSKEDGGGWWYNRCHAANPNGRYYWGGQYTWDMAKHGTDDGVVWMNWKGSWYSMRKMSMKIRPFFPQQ
Sequence of UniProt P02671 (P02679 other isoform, or with tags, fused parts or gaps limits assumed, chain 3 of 3, further chain): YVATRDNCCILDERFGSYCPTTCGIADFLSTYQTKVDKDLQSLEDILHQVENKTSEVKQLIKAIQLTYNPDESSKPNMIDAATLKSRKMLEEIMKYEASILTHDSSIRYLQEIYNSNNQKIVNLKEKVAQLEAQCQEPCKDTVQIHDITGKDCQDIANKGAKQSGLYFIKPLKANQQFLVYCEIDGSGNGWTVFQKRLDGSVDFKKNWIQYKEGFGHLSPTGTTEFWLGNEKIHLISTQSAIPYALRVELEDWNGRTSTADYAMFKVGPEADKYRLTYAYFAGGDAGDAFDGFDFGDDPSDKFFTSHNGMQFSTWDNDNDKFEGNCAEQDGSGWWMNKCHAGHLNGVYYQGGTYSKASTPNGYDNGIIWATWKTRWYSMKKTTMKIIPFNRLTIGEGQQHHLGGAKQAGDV

“PeproStat: fibrinogen-binding peptides of sequence GPRPG (GPRPG-PEG12-maleimide) conjugated to human serum albumin thiolated with 2-iminothiolane (from UniProt P02768 25-609)” came in with a Clotting activity (clot formation, Sigma Amelung KC4 coagulometer; 30 uL sample at 0.5 mg/ml added to 100 uL fibrinogen at 3 mg/ml) of less than 6 s.
